# Experiments:
# AncSZ = assay: phosphorylation enrichment, bacterial display (enrichment ratio); higher = better substrate or ligand; peptides without Tyr show the background
# EPHB1 = EPHB1 (UniProt P54762); assay: as above
# EPHB2 = EPHB2 (UniProt P29323); assay: as above
# FGFR1 = FGFR1 (UniProt P11362); assay: as above
# FGFR3 = FGFR3 (UniProt P22607); assay: as above
# Fer (mouse) = assay: as above
# Fes = Fes (UniProt P07332); assay: as above
# Fyn = Fyn (UniProt P06241); assay: as above
# Hck = Hck (UniProt P08631); assay: as above
# Jak2 = Jak2 (UniProt O60674); assay: as above
# MERTK = MERTK (UniProt Q12866); assay: as above
# c-Abl (mouse) = assay: as above
# c-Src = assay: as above
# Grb2 SH2 = Grb2 SH2 (UniProt P62993); assay: SH2 binding enrichment of the phosphorylated peptide, bacterial display (enrichment ratio); higher = better substrate or ligand; peptides without Tyr show the background
# SHP2-C SH2 = assay: as above
# c-Src SH2 = assay: as above
# 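For SH2 binding enrichment of the phosphorylated peptide, bacterial display in this document: peptide library displayed on the E. coli surface as eCPX fusions, selected cells deep-sequenced, score is each peptide's frequency after selection divided by its frequency in the input.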
# 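For phosphorylation enrichment, bacterial display in this document: 11-residue human phosphosite peptides and single-mutation variants displayed on the E. coli surface, counted by deep sequencing, each peptide's frequency after selection divided by its frequency in the unselected input library; frequency after pTyr selection over input frequency; kinase dosed for 20-30% of maximal phosphorylation in three min.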
# Grb2 SH2, sequence (P62993 whole entry, looked up): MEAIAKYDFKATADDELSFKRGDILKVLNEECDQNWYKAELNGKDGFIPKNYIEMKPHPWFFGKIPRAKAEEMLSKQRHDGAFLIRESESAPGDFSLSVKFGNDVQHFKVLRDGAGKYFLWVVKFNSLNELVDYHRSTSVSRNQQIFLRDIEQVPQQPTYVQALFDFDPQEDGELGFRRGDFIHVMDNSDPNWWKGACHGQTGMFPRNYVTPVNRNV
# Jak2, sequence (O60674 whole entry, looked up): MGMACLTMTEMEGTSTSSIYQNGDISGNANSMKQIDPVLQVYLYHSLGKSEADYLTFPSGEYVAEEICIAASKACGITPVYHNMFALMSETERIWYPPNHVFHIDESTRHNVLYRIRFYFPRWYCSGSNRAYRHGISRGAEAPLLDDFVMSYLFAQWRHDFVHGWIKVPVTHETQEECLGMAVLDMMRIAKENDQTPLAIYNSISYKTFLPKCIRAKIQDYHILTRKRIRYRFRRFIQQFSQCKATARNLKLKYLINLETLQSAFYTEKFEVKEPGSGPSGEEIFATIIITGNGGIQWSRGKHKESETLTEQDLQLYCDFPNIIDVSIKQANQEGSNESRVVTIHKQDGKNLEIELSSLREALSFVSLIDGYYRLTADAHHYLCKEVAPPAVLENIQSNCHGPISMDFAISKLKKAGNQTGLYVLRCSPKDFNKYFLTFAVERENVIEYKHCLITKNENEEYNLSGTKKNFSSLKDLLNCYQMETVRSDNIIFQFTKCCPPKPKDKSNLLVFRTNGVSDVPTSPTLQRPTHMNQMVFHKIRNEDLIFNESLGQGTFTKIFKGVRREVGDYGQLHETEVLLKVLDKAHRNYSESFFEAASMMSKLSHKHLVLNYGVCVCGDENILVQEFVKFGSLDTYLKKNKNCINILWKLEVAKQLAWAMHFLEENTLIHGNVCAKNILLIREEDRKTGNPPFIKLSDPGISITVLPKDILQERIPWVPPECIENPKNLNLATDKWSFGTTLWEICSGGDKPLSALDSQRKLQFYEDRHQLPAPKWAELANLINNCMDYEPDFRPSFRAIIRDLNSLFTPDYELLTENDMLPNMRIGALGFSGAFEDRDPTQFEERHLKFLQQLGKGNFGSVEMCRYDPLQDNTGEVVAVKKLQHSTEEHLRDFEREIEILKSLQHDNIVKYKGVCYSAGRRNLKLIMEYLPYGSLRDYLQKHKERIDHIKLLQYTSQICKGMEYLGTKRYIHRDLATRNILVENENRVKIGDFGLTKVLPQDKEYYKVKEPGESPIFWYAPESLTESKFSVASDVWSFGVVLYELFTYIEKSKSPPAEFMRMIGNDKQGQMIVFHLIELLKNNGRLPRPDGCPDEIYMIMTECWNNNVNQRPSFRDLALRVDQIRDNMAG
# FGFR3, sequence (P22607 whole entry, looked up): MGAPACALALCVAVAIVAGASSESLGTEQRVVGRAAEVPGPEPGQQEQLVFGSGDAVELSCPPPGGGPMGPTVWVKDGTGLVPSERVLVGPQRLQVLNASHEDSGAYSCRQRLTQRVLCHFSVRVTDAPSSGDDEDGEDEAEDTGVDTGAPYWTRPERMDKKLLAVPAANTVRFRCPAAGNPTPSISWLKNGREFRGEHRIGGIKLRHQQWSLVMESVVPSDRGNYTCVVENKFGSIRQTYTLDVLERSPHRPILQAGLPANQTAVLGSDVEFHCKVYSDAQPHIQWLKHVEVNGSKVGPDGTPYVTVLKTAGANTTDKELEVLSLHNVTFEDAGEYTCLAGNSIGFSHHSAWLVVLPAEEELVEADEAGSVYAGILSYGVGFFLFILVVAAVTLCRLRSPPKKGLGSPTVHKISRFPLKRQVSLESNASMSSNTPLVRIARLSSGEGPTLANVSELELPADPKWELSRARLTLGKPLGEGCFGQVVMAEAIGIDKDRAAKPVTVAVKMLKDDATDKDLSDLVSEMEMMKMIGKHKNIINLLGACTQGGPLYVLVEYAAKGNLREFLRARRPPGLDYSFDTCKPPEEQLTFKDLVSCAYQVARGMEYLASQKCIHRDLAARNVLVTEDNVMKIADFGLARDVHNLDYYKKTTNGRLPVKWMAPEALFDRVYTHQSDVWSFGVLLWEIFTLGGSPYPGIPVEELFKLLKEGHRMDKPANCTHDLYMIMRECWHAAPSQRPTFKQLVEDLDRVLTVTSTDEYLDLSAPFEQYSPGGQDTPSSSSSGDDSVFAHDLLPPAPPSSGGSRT
# FGFR1, sequence (P11362 whole entry, looked up): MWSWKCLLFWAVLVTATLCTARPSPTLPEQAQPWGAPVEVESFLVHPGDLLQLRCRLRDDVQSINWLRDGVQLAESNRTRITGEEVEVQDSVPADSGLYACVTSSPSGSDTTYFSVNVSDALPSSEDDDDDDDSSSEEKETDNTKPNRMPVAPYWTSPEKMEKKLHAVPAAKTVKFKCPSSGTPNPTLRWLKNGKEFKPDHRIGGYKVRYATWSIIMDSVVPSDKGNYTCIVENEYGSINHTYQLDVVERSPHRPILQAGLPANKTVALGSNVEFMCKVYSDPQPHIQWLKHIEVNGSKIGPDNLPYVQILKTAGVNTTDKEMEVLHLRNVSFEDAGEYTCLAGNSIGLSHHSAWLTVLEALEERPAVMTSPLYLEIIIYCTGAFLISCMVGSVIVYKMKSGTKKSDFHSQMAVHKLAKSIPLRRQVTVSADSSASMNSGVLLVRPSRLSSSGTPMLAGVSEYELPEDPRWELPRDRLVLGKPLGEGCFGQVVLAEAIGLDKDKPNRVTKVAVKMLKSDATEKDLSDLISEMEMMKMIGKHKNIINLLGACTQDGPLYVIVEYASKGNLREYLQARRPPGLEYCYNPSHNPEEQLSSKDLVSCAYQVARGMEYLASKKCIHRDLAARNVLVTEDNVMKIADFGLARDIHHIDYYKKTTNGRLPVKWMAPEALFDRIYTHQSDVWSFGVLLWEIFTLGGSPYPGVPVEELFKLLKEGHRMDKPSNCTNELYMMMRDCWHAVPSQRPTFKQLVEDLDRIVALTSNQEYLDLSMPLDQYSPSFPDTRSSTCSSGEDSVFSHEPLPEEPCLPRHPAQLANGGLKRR
# EPHB1, sequence (P54762 whole entry, looked up): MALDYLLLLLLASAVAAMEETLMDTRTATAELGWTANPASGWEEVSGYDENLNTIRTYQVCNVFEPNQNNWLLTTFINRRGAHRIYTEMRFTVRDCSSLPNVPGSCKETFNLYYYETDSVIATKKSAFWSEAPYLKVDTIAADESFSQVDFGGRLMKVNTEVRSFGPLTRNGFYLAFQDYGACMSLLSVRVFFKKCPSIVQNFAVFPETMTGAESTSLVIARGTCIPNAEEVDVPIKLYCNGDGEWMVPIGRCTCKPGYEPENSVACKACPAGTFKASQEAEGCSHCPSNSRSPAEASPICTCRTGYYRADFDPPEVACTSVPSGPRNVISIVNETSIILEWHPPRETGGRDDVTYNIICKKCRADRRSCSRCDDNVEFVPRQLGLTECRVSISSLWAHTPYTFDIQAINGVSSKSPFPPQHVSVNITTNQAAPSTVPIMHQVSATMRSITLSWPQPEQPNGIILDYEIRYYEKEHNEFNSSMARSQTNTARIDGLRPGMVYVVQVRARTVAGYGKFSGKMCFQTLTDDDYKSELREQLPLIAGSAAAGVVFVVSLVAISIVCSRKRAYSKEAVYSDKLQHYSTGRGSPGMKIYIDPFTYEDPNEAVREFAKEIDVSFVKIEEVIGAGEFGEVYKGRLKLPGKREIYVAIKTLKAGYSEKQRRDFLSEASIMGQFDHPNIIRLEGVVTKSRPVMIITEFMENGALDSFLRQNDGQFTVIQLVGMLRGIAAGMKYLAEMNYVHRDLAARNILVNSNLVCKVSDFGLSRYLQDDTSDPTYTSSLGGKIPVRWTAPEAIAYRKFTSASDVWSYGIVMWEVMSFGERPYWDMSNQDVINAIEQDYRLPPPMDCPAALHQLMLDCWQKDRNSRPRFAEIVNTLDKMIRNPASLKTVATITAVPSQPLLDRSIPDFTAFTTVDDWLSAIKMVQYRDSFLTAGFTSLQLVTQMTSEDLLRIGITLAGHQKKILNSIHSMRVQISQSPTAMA
# Fyn, sequence (P06241 whole entry, looked up): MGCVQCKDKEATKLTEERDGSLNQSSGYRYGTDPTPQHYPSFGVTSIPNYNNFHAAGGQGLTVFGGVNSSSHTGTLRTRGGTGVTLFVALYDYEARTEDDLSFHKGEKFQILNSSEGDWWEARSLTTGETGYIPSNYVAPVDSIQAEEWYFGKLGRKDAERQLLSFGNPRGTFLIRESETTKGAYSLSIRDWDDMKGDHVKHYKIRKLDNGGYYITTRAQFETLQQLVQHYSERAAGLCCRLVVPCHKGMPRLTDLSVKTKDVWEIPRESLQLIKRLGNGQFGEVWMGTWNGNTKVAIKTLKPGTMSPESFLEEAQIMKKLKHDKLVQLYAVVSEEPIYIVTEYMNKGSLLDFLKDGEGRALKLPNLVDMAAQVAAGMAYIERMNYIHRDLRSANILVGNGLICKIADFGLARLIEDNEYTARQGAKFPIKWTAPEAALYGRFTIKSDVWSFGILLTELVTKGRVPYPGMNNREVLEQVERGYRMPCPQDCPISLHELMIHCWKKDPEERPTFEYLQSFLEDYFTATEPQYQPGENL
# Hck, sequence (P08631 whole entry, looked up): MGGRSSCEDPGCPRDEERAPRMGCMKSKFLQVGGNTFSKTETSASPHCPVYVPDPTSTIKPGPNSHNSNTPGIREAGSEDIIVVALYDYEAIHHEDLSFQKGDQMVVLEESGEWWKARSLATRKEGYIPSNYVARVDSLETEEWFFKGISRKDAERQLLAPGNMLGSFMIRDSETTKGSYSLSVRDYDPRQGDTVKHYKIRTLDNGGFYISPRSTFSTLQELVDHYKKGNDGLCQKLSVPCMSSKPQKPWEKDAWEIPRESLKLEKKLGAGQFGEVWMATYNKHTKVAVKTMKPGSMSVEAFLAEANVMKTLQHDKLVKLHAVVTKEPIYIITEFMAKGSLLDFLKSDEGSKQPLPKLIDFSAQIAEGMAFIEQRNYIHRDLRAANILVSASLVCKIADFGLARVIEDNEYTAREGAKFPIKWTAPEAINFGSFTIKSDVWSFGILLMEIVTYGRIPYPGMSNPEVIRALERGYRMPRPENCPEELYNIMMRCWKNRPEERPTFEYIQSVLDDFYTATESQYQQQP
Sequence,phosphorylation enrichment (AncSZ),phosphorylation enrichment (EPHB1),phosphorylation enrichment (EPHB2),phosphorylation enrichment (FGFR1),phosphorylation enrichment (FGFR3),phosphorylation enrichment (Fer (mouse)),phosphorylation enrichment (Fes),phosphorylation enrichment (Fyn),phosphorylation enrichment (Hck),phosphorylation enrichment (Jak2),phosphorylation enrichment (MERTK),phosphorylation enrichment (c-Abl (mouse)),phosphorylation enrichment (c-Src),SH2 binding enrichment (Grb2 SH2),SH2 binding enrichment (SHP2-C SH2),SH2 binding enrichment (c-Src SH2)
GEVLVYAEDPA [FLNA_Y319_V320A],1.21,0.607,0.53,0.496,0.704,0.385,1.05,0.593,0.543,0.814,0.408,0.496,0.553,0.874,1,0.549
GGFNNYGFGND [HNRNPH3_Y159_YF],0.654,0.733,0.902,0.514,0.611,0.463,0.841,0.465,0.437,0.627,0.397,0.548,0.431,0.875,0.697,0.467
GGFNNYGFGSD [HNRNPH3_Y159_N163S_YF],0.656,0.7,0.812,0.48,0.533,0.39,0.762,0.458,0.454,0.68,0.474,0.575,0.426,0.753,0.744,0.47
GGGGGYNRSSG [FUS_Y232],0.478,0.57,0.271,0.304,0.386,0.328,0.503,0.371,0.419,0.503,0.435,0.574,0.358,0.682,0.503,0.34
GGGMFYPLDLF,0.942,0.503,0.454,0.405,0.693,0.405,1.1,0.453,0.499,0.891,0.372,0.627,0.388,1.07,0.749,0.532
GGMTEYELVVV [KRAS_Y4_K5E],1.6,1.39,1.15,2.95,1.62,7.66,1.04,0.664,0.585,1,0.456,0.589,0.651,0.792,0.528,0.525
GGPTFYIDTNA [ACTL6A_Y69_YF],1.24,0.707,0.626,0.542,0.868,0.529,1.39,0.458,0.53,1.13,0.41,0.775,0.439,0.874,0.608,0.577
GHEEFYSTHPH [LRRK2_Y1402_R1398H],0.664,0.617,0.7,0.76,0.549,1.41,0.626,0.638,1.15,0.59,1.77,0.504,1.2,0.771,1.09,0.434
GHEYIYVDRMQ [PDGFRB_Y581_P584R],0.891,0.796,0.546,5.2,3.24,0.472,0.695,1.94,1.44,0.644,0.48,0.607,2.62,0.878,0.859,0.746
GHGEEYPVAGA [NOTCH3_Y2221_A2223V],0.763,0.451,0.424,0.481,0.48,0.408,0.755,0.438,0.421,0.682,0.373,0.592,0.398,0.762,0.621,0.413
GHMFAYDWISI [BEST1_Y227_L224M_YF],1.47,1.05,0.933,3.48,2.15,13.8,2.68,0.935,1.78,0.842,7.14,0.922,1.28,1.25,1.03,1.15
GHNDVYILEHV [GRIN2A_Y1423_S1425L],0.861,0.452,0.518,0.43,0.594,0.567,1.03,4.4,1.04,0.668,0.378,0.54,2.94,0.717,0.755,0.48
GINDDHGQLKN [NBN_Y679_Y679H],0.757,0.448,0.475,0.471,0.591,0.426,0.763,0.537,0.484,0.591,0.473,0.524,0.382,0.817,1.05,0.481
GISDEYHVIRH [GCDH_Y398],0.917,0.458,0.475,4.48,2.26,0.405,0.69,0.64,0.962,0.633,0.339,0.569,0.664,0.827,0.606,0.941
GIVEEYQLPYY [BMPR1A_Y453],3,0.611,0.642,1.06,0.946,0.66,1.06,0.647,0.63,1.29,0.567,1.16,3.47,0.862,0.997,4.36
GIVKAYFVHAR [AIPL1_Y267_R270H_YF],0.795,0.422,0.494,0.388,0.605,0.481,0.872,0.449,0.461,0.73,0.448,0.602,0.428,1.3,1.71,1.01
